Source: patent US5985822A, “Inhibition of glial cell proliferation with N-CAM homophilic peptides” (The Scripps Research Institute, priority 1995, dated 1999)
Several values for one entry are separate records, joined by “and”; a condition that tells them apart may be missing. Equal values may be shown once.

Experiments:
[1] = test system: rat forebrain astrocytes in primary culture; experiment: Astrocyte proliferation assay ([3H]-thymidine incorporation normalized to [35S]-methionine); assay type: cell-based; settings: for inhibition of proliferation depending on cell density: 2 μg/ml N-CAM
Method: Primary cultures of astrocytes were prepared from the forebrains of 4-5 day old neonatal rats. After decapitation and removal of the forebrains from the skull, the meninges were carefully peeled off, and forebrain tissue was triturated in sterile phosphate buffered saline (PBS) using firepolished pipettes. The resulting suspension of tissue fragments was incubated in Hank's balanced salt solution (Gibco BRL) with 2.5 mg/ml trypsin, 1 mM EDTA and 0.1 mg/ml DNase (Boehringer) at 37° C. for 15 minutes. […] The pellet was resuspended in serum free medium (SFM) consisting of Dulbecco's Modified Eagle Medium (D-MEM), 2 mM L-glutamine, 50 U/ml penicillin G sodium and 50 μg/ml streptomycin sulfate (all from Gibco BRL) supplemented by 10% (vol/vol) fetal bovine serum (FBS). The cells were transferred to a standard 100 mm tissue culture dish (Falcon) and incubated at 37° C. for 1-2 hours. After mild shaking, the supernatant containing unattached cells was transferred to a 100 mm collagen-coated dish. […] Cell samples were checked regularly for the expression of GFAP, a marker for astrocytes.
After cell attachment, the culture medium was exchanged for SFM. In antisense experiments, oligonucleotides were added at the same time (T=0). […] After another 12 hours (at T=60), [^3 H]-thymidine (New England Nuclear, 20 Ci/mmol) was added (0.38 μM, 10 μCi/ml). Following an additional 12 hours (T=72), the wells were drained, counts precipitated by ice-cold […] trichloroacetic acid, and the plates left to dry. Counts were solubilized overnight by adding 100 μl 1 N KOH to each well, neutralized with 100 μl 1 N HCl, transferred to liquid scintillation vials and counted in 3 ml of Beckman Ready Safe liquid scintillation cocktail on a Packard 1600 TR counter. […] In this paper, proliferation is expressed as [^3 H]-thymidine incorporation normalized to [35]-methionine incorporation and calculated as [^3 H] dpm/ [35] dpm.

[2] = test system: tyrosine phosphorylated proteins (60-70 kDa and approximately 120 kDa); experiment: Anti-phosphotyrosine immunoprecipitation and immunoblot of bFGF-stimulated astrocytes; assay type: cell-based, rat; settings: N-CAM 2 μg/ml 30 minutes, then bFGF 100 ng/ml 10 minutes
Method: Astrocyte cells were seeded at a density of 7×10^4 /cm^2 in a 100 mm tissue culture dish in Dulbecco's modified essential medium (DMEM) containing 10% fetal calf serum and gentamycin (5 μg/ml) at 37 degrees C with 7% CO2. After overnight culture, the medium was replaced with serum-free medium and the cells are cultured for an additional 48 hr. The serum-starved cells were treated for 30 minutes in the presence of N-CAM (2 μg/ml) or buffer alone and then stimulated for 10 minutes with bFGF (100 ng/ml) to stimulate tyrosine phosphorylation through the FGF receptor. […]
Immunoblotting was performed by incubation with the indicated antibodies followed by ^125 I-labeled protein A; the resulting autoradiogram was exposed for 14 hr on XAR film at -70° C. or scanned on a Molecular Dynamics PhosphorImager (Sunnyvale, Calif.). The amount of reactivity with antibodies to phosphotyrosine relative to the amount of reactivity with antibodies to each specific protein can be calculated from imaging these gel blots, in extracts from N-CAM treated cells vs. non treated cells. This determines whether the FGF receptor or other proteins analyzed in this same paradigm are changed in their levels of tyrosine phosphorylation upon N-CAM treatment.

[3] = test system: C6 glioma cells; experiment: Proliferation of C6 glioma cells in SFM at low cell densities; assay type: cell-based; settings: externally added N-CAM

B1: N-CAM: neural cell adhesion molecule purified from early postnatal rat brains by affinity chromatography, mainly polysialylated embryonic form (protein, UniProt P13596 20-858, looked up)
Neural cell adhesion molecule …: LQVDIVPSQGEISVGESKFFLCQVAGDAKDKDISWFSPNGEKLSPNQQRISVVWNDDDSSTLTIYNANIDDAGIYKCVVTAEDGTQSEATVNVKIFQKLMFKNAPTPQEFKEGEDAVIVCDVVSSLPPTIIWKHKGRDVILKKDVRFIVLSNNYLQIRGIKKTDEGTYRCEGRILARGEINFKDIQVIVNVPPTVQARQSIVNATANLGQSVTLVCDADGFPEPTMSWTKDGEPIENEEEDDEKHIFSDDSSELTIRNVDKNDEAEYVCIAENKAGEQDASIHLKVFAKPKITYVENQTAMELEEQVTLTCEASGDPIPSITWRTSTRNISSEEKASWTRPEKQETLDGHMVVRSHARVSSLTLKSIQYTDAGEYICTASNTIGQDSQSMYLEVQYAPKLQGPVAVYTWEGNQVNITCEVFAYPSATISWFRDGQLLPSSNYSNIKIYNTPSASYLEVTPDSENDFGNYNCTAVNRIGQESLEFILVQADTPSSPSIDRVEPYSSTAQVQFDEPEATGGVPILKYKAEWKSLGEEAWHSKWYDAKEANMEGIVTIMGLKPETRYAVRLAALNGKGLGEISAATEFKTQPVREPSAPKLEGQMGEDGNSIKVNLIKQDDGGSPIRHYLVKYRALASEWKPEIRLPSGSDHVMLKSLDWNAEYEVYVVAENQQGKSKAAHFVFRTSAQPTAIPANGSPTAGLSTGAIVGILIVIFVLLLVVMDITCYFLNKCGLLMCIAVNLCGKAGPGAKGKDMEEGKAAFSKDESKEPIVEVRTEEERTPNHDGGKHTEPNETTPLTEPEKGPVETKSEPQESEAKPAPTEVKTVPNEATQTKENESKA
modifications: polysialylated embryonic form
inhibition of proliferation depending on cell density ([1]; higher cell density 28×10^4 cells/cm^2, confluent): virtually ineffective
inhibition of proliferation depending on cell density ([1]; lower cell density 1.8×10^4 cells/cm^2): Inhibition was maximal
N-CAM Alone ([1]; N-CAM 2 μg/ml, parallel control of each drug experiment (Table 5)): 32.5 % of SFM Control and 34 % of SFM Control
maximal suppression of proliferation ([1]; N-CAM 10 μg/ml in SFM, 7×10^4 cells/cm^2, three preparations): > 90%
effect on astrocyte proliferation (in words) ([1]; added to astrocyte cultures in SFM): inhibited their proliferation in a concentration dependent manner
suppressive effect of N-CAM added together with growth stimulus ([1]; with 1% FBS or 20 ng/ml bFGF): suppressive effect similar in magnitude to that observed in SFM
tyrosine phosphorylation of a 60-70 kDa protein and a protein at approximately 120 kDa [2]: diminished tyrosine phosphorylation
rate of proliferation of C6 glioma cells [3]: decrease their rate of proliferation
